Reference: US20220202901A1, “PEPTIDES IN COMBINATION WITH IMMUNE CHECKPOINT INHIBITORS FOR USE IN TREATMENT OF CANCER” (WNTRESEARCH AB, priority 2019, published 2022)

Columns and labels:
[1] = tested on: SKBR3 cells; assay: Functional immune response assay: PBMC cytotoxicity against SKBR3 cells; type: cell-based; settings: SKBR3, relative to vehicle control
Procedure: (§1) Purpose: Examining the cytotoxic effect of Foxy-5 and an anti-PD-L1 antibody alone or in combination in a functional immune response assay with different breast cancer cell lines.
(§2) Peripheral blood mononuclear cells (PBMCs) were isolated from whole blood using Ficoll Paque based density centrifugation.
(§3) SKBR3 (low in PD L1, denoted PD L1+) or HCC1954 (high in PD L1, denoted PD L1+++) cells were stained with 0.1 mM CFSE.
(§4) Effector cells (EC), i.e. PMMCs and target cells (TC), i.e. SKBR3 or HCC1954 cells, respectively, were brought to a concentration of 2×10^5 cells/ml.
(§5) Cells were treated with and without Foxy5 (100 μM), the cells were also treated with and without pembrolizumab […].
(§6) Cells were plated at EC:TC ratios of 1:1 (first bar), 5:1 (second bar) and 10:1 (third bar) along with basal cell death controls and total cell death controls. Once plated, cells were spun down and incubated for 12 hours. After 12 hours cells were re suspended with 5 μg/ml 7AAD. Cells were then analysed on the Guava flow cytometer.
(§7) Based on staining patterns live/dead cell and immune/cancer cell differentiation can be determined and the direct cytotoxicity in terms of the cell death percentage was calculated.
Direct cytotoxicity elicited by PBMCs against the SKBR3 cell line in the presence of FOXY-5 and/or pembrolizumab relative to vehicle control. […]

[2] = tested on: HCC1954 cells; assay: Functional immune response assay: PBMC cytotoxicity against HCC1954 cells; type: cell-based
Procedure: as §1, §2, §3, §4, §5, §6, §7
Direct cytotoxicity elicited by PBMCs against the HCC1954 cell line in the presence of FOXY-5 and/or pembrolizumab relative to vehicle control. […]

Q: For Pembrolizumab, which “trastuzumab mediated ADCC” value ([1]; EC:TC 10:1 and 5:1 ratios) is on record?
A: The value was “decreased”.

Q: And the “direct PBMC cytotoxicity” value ([1]; EC:TC 10:1 ratio)?
A: Its value is “increased”.

Q: And the “direct PBMC cytotoxicity” value ([2]; HCC1954 (PD L1 high), relative to vehicle control, EC:TC 5:1 and 10:1 ratios)?
A: Its value is “increased”.

Q: What about the direct cytotoxicity ([2]; HCC1954, pembrolizumab added to Foxy-5 vs. single agent, ratios 1:1 and 10:1) of the same substance?
A: The direct cytotoxicity was “increased”.
